Measurements: patent publication US20220033485A1 (TEIJIN PHARMA, published 2022)
Residue numbers refer to the chain shown, from its start. In names and notes the source's numbering stands.

B1: anti-IGF-I receptor humanized antibody R11-16B (antibody, human IgG4, V domains shown)
VH: QVQLVQPGAELVKPGASVKVSCKAPGYTFTSYWMHWVRQAPGQGLEWIGETNPSNSVTNYNEKFKSKATLTVDTSTSTVYMELSSLRSEDTAVYYCTIGRGRGFAYWGQGTLVTVSS
VL: DIQMTQSPSSLSASVGDRVTITCRASQNINFWLSWYQQKPGKAPKLLIYKASNLHTGVPSRFSGSGSGTDFTFTISSLQPEDIATYYCLQGQSYPYTFGQGTKLEIK
notes: Heavy chain constant region: human IgG4 S228P variant; Expressed in Expi293, protein A purified; also called R11-16B antibody; R11-16VH + R11-16VL-C36Y
B2: anti-IGF-I receptor humanized antibody R11-16E (antibody, human IgG4, V domains shown)
VH: B1 VH
VL: B1 VL with Y36F
notes: also called R11-16E antibody; R11-16VH + R11-16VL-C36F
B3: anti-IGF-I receptor humanized antibody R11-16F (antibody, human IgG4, V domains shown)
VH: B1 VH
VL: B1 VL with Y36C
notes: also called R11-16F antibody; R11-16VH + R11-16VL-C36
B4: anti-IGF-I receptor humanized antibody R11-16D (antibody, human IgG4, V domains shown)
VH: B1 VH
VL: B1 VL with Y36S
notes: also called R11-16D antibody; R11-16VH + R11-16VL-C36S
B5: anti-IGF-I receptor humanized antibody R11-16C (antibody, human IgG4, V domains shown)
VH: B1 VH
VL: B1 VL with Y36A
notes: also called R11-16C antibody; R11-16VH + R11-16VL-C36A

biological target: T1, human IGF-I receptor (human, UniProt P08069 31-1367); experiment: cell-based or functional assay
T1 sequence (P08069 31-1367 limits assumed): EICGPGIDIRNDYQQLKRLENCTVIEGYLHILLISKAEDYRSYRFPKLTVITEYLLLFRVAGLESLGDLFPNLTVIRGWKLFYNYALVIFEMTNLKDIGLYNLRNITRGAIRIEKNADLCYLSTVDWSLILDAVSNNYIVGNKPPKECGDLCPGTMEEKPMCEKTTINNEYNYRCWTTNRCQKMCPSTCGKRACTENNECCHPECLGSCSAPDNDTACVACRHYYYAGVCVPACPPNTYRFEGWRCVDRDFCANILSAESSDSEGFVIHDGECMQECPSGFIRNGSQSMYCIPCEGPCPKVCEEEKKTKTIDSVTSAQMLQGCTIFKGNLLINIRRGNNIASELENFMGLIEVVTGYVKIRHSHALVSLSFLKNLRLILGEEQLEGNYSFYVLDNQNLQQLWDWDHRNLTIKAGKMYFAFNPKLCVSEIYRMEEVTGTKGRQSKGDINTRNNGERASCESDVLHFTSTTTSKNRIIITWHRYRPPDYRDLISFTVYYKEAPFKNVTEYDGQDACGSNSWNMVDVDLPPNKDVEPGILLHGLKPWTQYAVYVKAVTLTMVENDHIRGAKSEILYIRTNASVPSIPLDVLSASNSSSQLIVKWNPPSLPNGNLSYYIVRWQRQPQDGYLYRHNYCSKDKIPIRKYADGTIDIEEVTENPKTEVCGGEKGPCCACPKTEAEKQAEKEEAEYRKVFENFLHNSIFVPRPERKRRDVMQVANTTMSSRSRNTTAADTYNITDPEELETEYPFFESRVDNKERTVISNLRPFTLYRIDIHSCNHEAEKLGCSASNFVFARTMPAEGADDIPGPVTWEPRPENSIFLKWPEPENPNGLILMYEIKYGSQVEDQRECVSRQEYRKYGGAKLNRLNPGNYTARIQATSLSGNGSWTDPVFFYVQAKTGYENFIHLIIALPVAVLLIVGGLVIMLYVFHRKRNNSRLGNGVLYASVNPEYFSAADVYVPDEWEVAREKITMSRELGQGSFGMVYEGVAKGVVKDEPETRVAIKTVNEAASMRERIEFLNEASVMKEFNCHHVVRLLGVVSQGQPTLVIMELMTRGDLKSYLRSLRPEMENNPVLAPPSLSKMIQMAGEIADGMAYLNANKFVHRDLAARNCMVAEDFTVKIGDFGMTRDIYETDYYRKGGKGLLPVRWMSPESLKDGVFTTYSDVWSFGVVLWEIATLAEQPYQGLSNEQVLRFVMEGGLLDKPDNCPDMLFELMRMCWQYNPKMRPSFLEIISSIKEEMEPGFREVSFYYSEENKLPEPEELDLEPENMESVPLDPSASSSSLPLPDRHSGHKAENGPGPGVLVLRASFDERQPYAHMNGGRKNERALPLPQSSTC

Row | Binder | EC50 of proliferation activity on human myoblast cells [pM]
1 | B1 | 2
2 | B2 | 2
3 | B3 | 2
4 | B4 | 2
5 | B5 | 2

biological target: T2, Substitute 2 of CR domain (human IGF-I receptor G315S, S316T, C-terminal FLAG tag) (human, UniProt P08069 31-1367); experiment: cell-based ELISA on fixed 293T cells expressing the substitute receptor
T2 construct: Expressed on 293T cells, formalin fixed; also called substitute 2 receptor
Description: (§1) 293T cells were seeded in 10-cm dishes coated with poly-D-lysine in 6×10⁶ cells. On the next day, each plasmid DNA was introduced into the cells by lipofection. Two days later, the 293T cells were released with 0.05% trypsin/EDTA and suspended in the culture medium. The 293T cells were added to a 96-well plate (coated with poly-D-lysine) in 2×10⁴ cells/well and incubated overnight at 37° C. under 5% CO₂. The medium was removed from the 96-well plate. The plate was fixed with 10% buffered formalin (Mildform® 10NM, Wako), replaced by a blocking buffer (3% BSA/PBS/0.02% sodium azide), and used for the ELISA.
(§2) Each well was washed two times with a cleaning solution. A 2500-fold diluted solution of an anti-human IgG antibody ALP conjugate solution (2087-04, Southern Biotech) in the blocking buffer (50 μL) was added to each well and reacted for about one hour at room temperature. Each well was washed three times with a cleaning solution. A pNPP substrate (100 μL) was added to each well to initiate the reaction. The absorbances at 405 nm and 550 nm were measured after about one hour.

Row | Binder | binding result
6 | B1 | no binding (tested: 5 nM)

biological target: T3, rat IGF-I receptor (rat, UniProt P24062 31-1370); experiment: cell-based ELISA on HEK293T cells expressing the receptor
T3 construct: Whole entry as named; expressed on HEK293T cells; also called IGF-I receptor of rat; NP_434694
T3 sequence (P24062 31-1370 limits assumed): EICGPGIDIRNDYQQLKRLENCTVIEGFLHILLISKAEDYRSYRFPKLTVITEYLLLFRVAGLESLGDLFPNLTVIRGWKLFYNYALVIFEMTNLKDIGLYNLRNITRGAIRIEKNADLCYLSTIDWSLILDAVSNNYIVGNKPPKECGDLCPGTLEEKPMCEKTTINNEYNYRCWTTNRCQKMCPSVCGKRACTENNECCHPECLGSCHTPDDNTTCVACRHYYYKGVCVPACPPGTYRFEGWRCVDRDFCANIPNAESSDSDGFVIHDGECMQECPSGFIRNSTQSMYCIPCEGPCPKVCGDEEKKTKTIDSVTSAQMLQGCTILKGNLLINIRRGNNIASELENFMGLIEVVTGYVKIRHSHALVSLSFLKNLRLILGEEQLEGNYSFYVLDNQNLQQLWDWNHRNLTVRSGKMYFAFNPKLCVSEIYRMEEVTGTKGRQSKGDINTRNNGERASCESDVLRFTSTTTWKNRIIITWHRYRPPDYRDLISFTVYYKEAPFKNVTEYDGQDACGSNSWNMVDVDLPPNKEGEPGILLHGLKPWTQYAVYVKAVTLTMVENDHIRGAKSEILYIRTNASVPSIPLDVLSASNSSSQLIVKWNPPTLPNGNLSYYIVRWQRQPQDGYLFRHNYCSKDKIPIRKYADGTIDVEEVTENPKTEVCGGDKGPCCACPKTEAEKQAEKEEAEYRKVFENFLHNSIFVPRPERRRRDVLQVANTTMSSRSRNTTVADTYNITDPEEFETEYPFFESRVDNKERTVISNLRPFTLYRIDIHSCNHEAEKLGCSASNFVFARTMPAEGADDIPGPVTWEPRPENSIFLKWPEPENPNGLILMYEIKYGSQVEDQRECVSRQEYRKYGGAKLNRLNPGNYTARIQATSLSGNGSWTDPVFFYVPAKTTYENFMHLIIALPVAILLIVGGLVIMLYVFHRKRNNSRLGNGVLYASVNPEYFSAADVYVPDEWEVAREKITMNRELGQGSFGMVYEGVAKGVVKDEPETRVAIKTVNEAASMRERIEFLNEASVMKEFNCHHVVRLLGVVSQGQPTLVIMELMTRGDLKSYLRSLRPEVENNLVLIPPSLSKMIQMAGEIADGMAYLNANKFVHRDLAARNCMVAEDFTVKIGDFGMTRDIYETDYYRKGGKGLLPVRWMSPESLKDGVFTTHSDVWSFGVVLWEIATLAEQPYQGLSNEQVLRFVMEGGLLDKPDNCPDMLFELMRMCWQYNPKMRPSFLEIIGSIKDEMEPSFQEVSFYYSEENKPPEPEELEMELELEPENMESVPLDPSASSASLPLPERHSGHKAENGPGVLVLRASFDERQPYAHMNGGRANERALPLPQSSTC
Description: (§3) The HEK293T cells cultured for at least one night after the lipofection were added to a 96-well plate (coated with poly-D-lysine) in 4×10⁴ cells/well, and the plate further cultured for at least one night were used in the ELISA.
(§4) In the ELISA, 2 nM humanized antibody solutions in 1% BSA/1% FBS/PBS (100 μL) were added to respective wells and reacted for about one hour at 37° C. The wells were washed three times with a cleaning solution. An HRP conjugate solutions (100 μL) of an anti-human IgG antibody prepared at various concentrations with 1% BSA/1% FBS/PBS was added to the respective wells and reacted for about one hour at 37° C. Each well was washed three times with a cleaning solution. A TMB substrate (100 μL) was added to each well to initiate the reaction. Approximately 30 minutes later, 1M sulfuric acid (100 μL) was added to each well to measure the absorbances at 450 nm and 650 nm and calculate the difference of the values between 450 nm and 650 nm.

Row | Binder | binding result
7 | B1 | no binding (tested: 2 nM)
8 | B2 | no binding (tested: 2 nM)
9 | B3 | no binding (tested: 2 nM)
10 | B4 | no binding (tested: 2 nM)
11 | B5 | no binding (tested: 2 nM)

biological target: T1, human IGF-I receptor; experiment: cell-based ELISA, 2 nM antibody on HEK293T cells expressing the receptor, A450-A650
Description: as §3, §4

Row | Binder | Avidity (relative to control HEK293T cells = 1)
12 | B1 | 3.4 fold of control cells
13 | B2 | 3.7 fold of control cells
14 | B3 | 3.4 fold of control cells
15 | B4 | 3.4 fold of control cells
16 | B5 | 3.4 fold of control cells

biological target: T3, rat IGF-I receptor; experiment: as above
Description: as §3, §4

Row | Binder | Avidity (relative to control HEK293T cells = 1)
17 | B1 | 0.8 fold of control cells
18 | B2 | 0.8 fold of control cells
19 | B3 | 0.9 fold of control cells
20 | B4 | 0.9 fold of control cells
21 | B5 | 0.9 fold of control cells

biological target: T4, guinea pig IGF-I receptor (guinea pig, UniProt P08069 31-1367 (human entry)); experiment: as above
T4 construct: Whole entry as named; expressed on HEK293T cells; also called IGF-I receptor of guinea pig; XP_003475316
T4 sequence (P08069 other isoform, or with tags, fused parts or gaps limits assumed): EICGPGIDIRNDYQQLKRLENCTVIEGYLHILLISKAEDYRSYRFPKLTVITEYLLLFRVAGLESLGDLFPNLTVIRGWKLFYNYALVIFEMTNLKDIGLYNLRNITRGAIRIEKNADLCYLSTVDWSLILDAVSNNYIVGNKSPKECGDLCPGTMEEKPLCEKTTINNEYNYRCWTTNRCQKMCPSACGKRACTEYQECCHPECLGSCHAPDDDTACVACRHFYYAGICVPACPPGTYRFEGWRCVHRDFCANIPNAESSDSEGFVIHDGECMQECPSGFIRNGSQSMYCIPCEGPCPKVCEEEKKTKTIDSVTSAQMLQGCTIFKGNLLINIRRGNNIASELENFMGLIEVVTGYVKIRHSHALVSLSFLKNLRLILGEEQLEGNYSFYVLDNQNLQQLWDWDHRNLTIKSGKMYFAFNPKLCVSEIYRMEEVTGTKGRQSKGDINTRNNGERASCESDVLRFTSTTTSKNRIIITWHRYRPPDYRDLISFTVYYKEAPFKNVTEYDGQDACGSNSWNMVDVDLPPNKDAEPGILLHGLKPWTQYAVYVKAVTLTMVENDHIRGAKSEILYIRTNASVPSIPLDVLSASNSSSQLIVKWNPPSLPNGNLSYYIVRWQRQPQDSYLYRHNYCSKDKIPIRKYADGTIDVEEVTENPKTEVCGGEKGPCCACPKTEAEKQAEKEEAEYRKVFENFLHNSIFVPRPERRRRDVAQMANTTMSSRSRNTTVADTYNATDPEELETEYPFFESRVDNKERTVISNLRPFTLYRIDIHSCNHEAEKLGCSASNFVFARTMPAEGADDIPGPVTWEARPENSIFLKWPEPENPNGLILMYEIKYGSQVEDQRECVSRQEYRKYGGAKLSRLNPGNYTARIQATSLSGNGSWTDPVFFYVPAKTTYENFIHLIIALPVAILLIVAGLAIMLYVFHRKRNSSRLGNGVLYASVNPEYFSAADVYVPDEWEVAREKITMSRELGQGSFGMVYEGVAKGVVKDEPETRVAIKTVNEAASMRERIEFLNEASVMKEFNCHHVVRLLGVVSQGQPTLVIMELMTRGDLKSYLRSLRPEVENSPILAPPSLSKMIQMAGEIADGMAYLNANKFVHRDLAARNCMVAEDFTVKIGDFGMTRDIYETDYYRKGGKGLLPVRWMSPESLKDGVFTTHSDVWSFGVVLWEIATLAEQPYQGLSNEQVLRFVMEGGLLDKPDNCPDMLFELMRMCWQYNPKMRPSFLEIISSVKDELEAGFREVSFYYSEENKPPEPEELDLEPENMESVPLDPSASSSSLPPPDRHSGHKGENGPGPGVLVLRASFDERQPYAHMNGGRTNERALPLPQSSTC
Description: as §3, §4

Row | Binder | Avidity (relative to control HEK293T cells = 1)
22 | B1 | 3.3 fold of control cells
23 | B2 | 3.4 fold of control cells
24 | B3 | 3.3 fold of control cells
25 | B4 | 3.3 fold of control cells
26 | B5 | 3.3 fold of control cells

biological target: T5, cynomolgus monkey IGF-I receptor (cynomolgus monkey, UniProt P08069 31-1367 (human entry)); experiment: as above
T5 construct: Whole entry as named; expressed on HEK293T cells; also called IGF-I receptor of cynomolgus monkey; XP_005560575
T5 sequence (P08069 other isoform, or with tags, fused parts or gaps limits assumed): as the sequence (P08069 31-1367 limits assumed) above, with T188A, S471W, A729V, P738L, E1238D counted along it
Description: as §3, §4

Row | Binder | Avidity (relative to control HEK293T cells = 1)
27 | B1 | 3.3 fold of control cells
28 | B2 | 3.7 fold of control cells
29 | B3 | 3.3 fold of control cells
30 | B4 | 3.4 fold of control cells
31 | B5 | 3.3 fold of control cells

biological target: T6, Substitute 1 of CR domain (human IGF-I receptor D245N, A247T, E294D, C-terminal FLAG tag) (human, UniProt P08069 31-1367); experiment: cell-based ELISA, 5 nM R11-16B on fixed 293T cells expressing the FLAG-tagged receptor; Mock cells gave 0.328
T6 construct: Expressed on 293T cells, formalin fixed; also called substitute 1 receptor
Description: as §1, §2

Row | Binder | Avidity (absorbance, R11-16B added minus not added) [absorbance]
32 | B1 | 0.885

biological target: T7, wild-type human IGF-I receptor with C-terminal FLAG tag (human, UniProt P08069 31-1367); experiment: as above
T7 construct: Expressed on 293T cells, formalin fixed; also called positive control
Description: as §1, §2

Row | Binder | Avidity (absorbance, R11-16B added minus not added) [absorbance]
33 | B1 | 0.835

biological target: T2, Substitute 2 of CR domain (human IGF-I …); experiment: as above
Description: as §1, §2

Row | Binder | Avidity (absorbance, R11-16B added minus not added) [absorbance]
34 | B1 | 0.308

biological target: T1, human IGF-I receptor; experiment: cell-based or functional assay; remark: another data set of the same source

Row | Binder | Proliferation activity on human myoblast cells (%), 0.005 nM, Experiment 1 [%] | Proliferation activity on human myoblast cells (%), 0.005 nM, Experiment 2 [%] | Proliferation activity on human myoblast cells (%), 0.5 nM, Experiment 1 [%] | Proliferation activity on human myoblast cells (%), 0.5 nM, Experiment 2 [%]
35 | B1 | 147 | 148 | 164 | 164
36 | B2 | 150 | 143 | 166 | 164
37 | B3 | 146 | 148 | 161 | 156
38 | B4 | 144 | 149 | 160 | 169
39 | B5 | 150 | 143 | 178 | 172
